According to the domain aggregation screens of Martell et al. (2025):

Assay: soluble fraction after stress (log2 fold change); higher = more stays soluble; pooled small domains, quantitative proteomics
Settings: stress: 50 degC
Outline: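 The stress applied to every library was 50°C. These custom libraries of small protein domains were pooled and measured at high throughput with quantitative proteomics as the read-out. Aggregation propensity is expressed as the base-two logarithm of the fold change in how much of each protein remains soluble. The higher the value, the more of that protein stays in solution.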

| Sequence | soluble fraction (log2) |
| --- | --- |
| HMEVNMEEKMEFVHSYIKTHKTFLFRQLLSESKSRTQVIVTFLVILELIKGGKISVTQENRTDDILINSL | -0.342 |
| HMKKILLGDVNLDGKVDVNDVTLLQRYIAGETEVITSKDALTATNFNKDGNIDVLDVTDIQTFIANSE | 0.0836 |
| HMQMSDTSMIRDLVLQVLAENPQSIEDFKNGKDRAVGFLVGMVMKKSQGKANPQITNQMIVEELKK | -0.104 |
| HMQLPTNAAAILRYLSSGAVKGVGSATAVRIVEKFGEETLNILEQDPLRLAEIRGISRDKAKKIGEDFASQ | -0.201 |
| HMAPLAVIFPEPWRGMIAPEKLEGLTQALSLNPRPGYQHDPTRRYGVSLDGLDVRFTIDGDTLTVVEVVT | -0.635 |
| HMTTVKDRVYEILKREIVLGKLKPGEPINIAVLSTKLNISSAPLREALNMLSRDGLVTLNPRKHAAVSE | -0.499 |
| HMSRVTVDVNPDVLQWAIDKKGKGDIKNKFPKIDEWLNGISKPTIHQLENFAKYVSVPFGYLLLSKPPVE | 0.276 |
| HMSFMFEISVIRSQYNMQDPESKTGFYNAIAKKLLEFPEKLERDNYTEAVAREYMIPETDLKNLVNSMGG | -2.17 |
| HMKGKIYFFEEGVDRVGGVERVISTLANEFSKKYKVNVISFYKTRKETFFKYNSDIDITYLSK | 0.14 |
| HMLDLVSIGKRIKAERQKNGLTQEALAERIEVSAHYVYELERGLKAMSVPILLRMSEVLHTSTDYLLF | -2.9 |
| HMSIESPEEFNAKFPPGSEIYATNIQKNAIVQSPANAKGDVEILANSMRLTINFRFISKRDT | 0.0469 |
| HMSPRADRSVNLDVGETVQIDDWGADGTAQIRYRGAPWTAVLRPGHTPHPGPHRVIELVGSRLLVEP | -0.0121 |
| HMVQDDLRELEGISTELLAKLADAGITNRDDLADLAIDELVAITGQSEDDAKALIMKAREHWFAGDA | -0.0273 |
| HMTEAVYMPALQNKTLEEAQRIVEQYDLELEYTYEANAQVEEGRILSQTPQMGVLVERGEKVQAVVSLG | 0.571 |
| HMPEITPAMIKALLSSLSEELAFASVTKVYAVLHNLFKAALLDDTIDRNPMDKVPRPRKSKDAAL | -0.38 |
| HMDIDGVSENGRLILAALDKEALDFDTLAAETGIQESRLRTELTLLEIRKLIMKLPGQRYRLI | 0.0016 |
| HMEINEDEIYEKIMIEIEQDNKVKSTWAKALSQSDGNKDKAESLYISMRFEELKYHQSYQKEELNLKDNQQ | 0.0911 |
| HMSKLQETEIPVALEVEKIPGLSNELKQKLLKIKPQTIGQASRISGITPAAISILMIYIKKNESISAVK | -1.57 |
| HMSNATELVYDDGRKLLISYETLVGGYHPDLGWIRTAKTYSISTDKHIRNYFNNVTNPRVVGEDILETLKI | 0.0667 |

| Sequence | soluble fraction (log2) |
| --- | --- |
| HMDLVESYDLKIIYTSELINLLIDSSRLEEALNLFKDLKDEIDDVENLGFSAKNNLDYMESKLLHLG | -1.83 |
| HMEPIAFDNMHNRGIKGTNDWTQYEITLPFSAEAKKIFVAGLLVGKGKAWFDKFEVFLDGKNITDVAQI | 0.124 |
| HMQERTVVKGVVVQVSRDEAYVDIGYKQEIPVSKRDLAVPAPDDARDVVKVGDEIDVYIKSLGGDNGG | -0.00098 |
| HMLTRQRKQLLEYLSKHTDEQMTARQIADALTAESISISAVYRNLSALEEEGILKRSIRENTREVYYQYIA | -0.973 |
| HMDKEKLQEKLLQIFEAEPQKKFQVQDLVKVLDMEGAGQFKFVVQALADLEHNKQIKLSEDDTFSLIVKE | 0.0616 |
| HMNIEEAESILKEIKTVLTDKEYEVYTLRAKGFTYQEIASLLNTTTKSVDGALSRIKTKINNIK | 0.0839 |
| HMIDIGSKIKKLRSKKSIEIGKKYTGAMLANELGISRSYLGDIESGRTVPNEIILGKIADIFDVDIYELIG | -0.256 |
| HMRNDIFDQLTEREMQILQEVAKGYRNKQIADHLFISESTVKVHMKSLLKKLQVPSRTAATVLYLERYG | -1.66 |
| HMREIEVNYAAGDSVRVIDGPLAGFIGVVSSVEPDKNKVNVTVSMFGRETPVELELDQVETLD | 0.159 |
| HMQRQGTVATQQTPLNIRSQPSLSAQVIGQAPKGATVAILGESGDWYQIRYQNITGYSSKQYI | 0.145 |
| HMKHFFIIAGGKIEDAFAIEVLKGFAEKTVIAADSGMEFLRRNEIVPQVIIGDFDSVSKETLEWFQKK | -0.703 |
| HMIDEPENLIQEDKMVNIIYDLALLEGVKTFNSSNFQSVKSNDFVYKKYKIDSLQFAKSTQFYASDINR | -0.168 |
| HMYSYSGSVINTYKVPVSVVLKDANGSAIASWDLPVDQSLGISAKDIATSSGTIEITGDGVNETKTVTFTK | -0.0188 |
| HMSLRVIEIFGTPQQMSARISLMDGSVTDVKVGQSIPGTSYKVASITGNGVWIQNGTAVSYTHL | -1.3 |
| HMVDTSDLPAIVEKVFADNPEQVNDILNGKDRVKGFLVGQIMKATRGQAPPDEVNKLIDATLEKMKAA | 0.0819 |
| HMRYWVKSETDFLIENRGKYSYQEFADMLGRSYAVVYDKMHQLKIDYTKEELEIFDEKHKAQMREKQQR | -1.52 |
| HMTDEYYSYIGKTGTTITVLRPAGIAEVEGERLNVVSEGEFIRKGAAILVKEVEGARILVEEVN | -0.381 |
| HMANSREIPKLAGIEQEEAVKQLLDLDLKPVIEEITDDDTDAGDVVRTDPAAGEHVAVDTEITVFISIG | -0.421 |
